From patent US8440628B2, “Medical compositions containing ghrelin” (Daiichi Sankyo Company, Limited, priority 2002, dated 2013)

What was measured:
Type in all cases: physicochemical
[1] = Stability of human ghrelin in pH-adjusted purified water at 25°C (Example 7); conditions: for Peak area ratio to total peak area: 25±2°C
Experimental: Human ghrelin was dissolved in the purified water with about 0.03 μmol/mL (0.1 mg/mL). […] This solution was divided into quarter, and one portion was kept alone and the pH values of the remaining three portions were adjusted to pH 1.8 (with 17 mM of hydrochloric acid), pH 3.9 (with 0.20 mM of hydrochloric acid) and pH 7.8 (with 0.24 mM of sodium hydroxide) respectively, by adding along with hydrochloric acid or sodium hydroxide aqueous solution.

[2] = Stability of human ghrelin in 0.1M HCl and Mcllvain buffer solutions of various pH at 25°C (Example 2, HPLC peak area ratio)
Experimental: Human ghrelin was dissolved in the following aqueous solutions in the concentration of about 0.15 μmol/mL (0.5 mg/mL).
0.1M HCl aqueous solution (pH: 1.1)
The pH was adjusted with 0.1M citric aqueous acid and 0.2M dibasic sodium phosphate aqueous solution.
Each solution were stored at 25±2° C. for 8, 24, 48 and 72 hours respectively, and the obtained solutions were detected by HPLC analysis in comparison to the solutions before storage. […] No significant changes of pH in solution before storage and after storage were observed.

[3] = Stability of human ghrelin in Britton-Robinson buffer solutions of various pH at 40°C (Example 3); conditions: pH range of 3 to 6, stored at 40° C. for 1 day (FIG. 3)
Experimental: Human ghrelin, which is one of the ghrelins, was dissolved in the Britton-Robinson buffer solutions which is adjusted by combining 0.04M phosphoric acid-acetic acid-boric acid aqueous solution and 0.2M sodium hydrate aqueous solution in appropriate ratio, having pH of 2.1, 3.1, 4.0, 5.0, 6.0, 7.0 and 7.9 to obtain an aqueous solution containing human ghrelin in the concentration of about 0.15 μmol/mL (0.5 mg/mL). The obtained solution was filled in brownish glass ampoules and the ampoules were sealed with fire. For the calculation of kinetic constant, the certain degrees of degradation products have to be occurred in the aqueous solution of the ghrelins, and therefore, the ampoules were stored at 40±1° C., which was severe conditions for storage. The concentration (residual ratio) of human ghrelin was conducted by HPLC with time. At the same time, the pH of the solution was measured and it was confirmed that there was no significant changes of pH in solution.
The kinetic constants in each pH solution were calculated from the sequential change of the residual ratio, and the results were shown in FIG. 2.

**Q.** Which “Production of the degradation product in human ghrelin solution” value (from here on “Production of the degradation product”) ([1]; aqueous solution of pH 3.9 and 4.7, 25±2°C, up to 3 days) does the source give for “desacylated human ghrelin (GSSFLSPEHQRVQQRKESKKPPAKLQPR; Ghrelin-28 desacyl; UniProt Q9UBU3 24-51, looked up) [Desacyl compound, degradation product obtained from the hydrolytic cleavage of octanoyl group of human ghrelin]” here?
**A.** inhibited

**Q.** What about the “Peak area ratio to total peak area” value ([1]; human ghrelin 0.1 mg/mL in purified water adjusted to pH 1.8 with hydrochloric acid, 1 day after) of the same substance?
**A.** 1.46%

**Q.** What about the “Peak area ratio to total peak area” value ([1]; human ghrelin 0.1 mg/mL in purified water adjusted to pH 1.8 with hydrochloric acid, before storage) of the same substance?
**A.** 0.12%

**Q.** What about the “Peak area ratio to total peak area” value ([1]; human ghrelin 0.1 mg/mL in purified water adjusted to pH 3.9 with hydrochloric acid, 1 day after) of the same substance?
**A.** 0.09%

**Q.** And the “Peak area ratio to total peak area” value ([1]; human ghrelin 0.1 mg/mL in purified water adjusted to pH 3.9 with hydrochloric acid, 3 days after)?
**A.** 0.14%

**Q.** What about the “Peak area ratio to total peak area” value ([1]; human ghrelin 0.1 mg/mL in purified water adjusted to pH 3.9 with hydrochloric acid, before storage) of the same substance?
**A.** 0.07%

**Q.** And the “Peak area ratio to total peak area” value ([1]; human ghrelin 0.1 mg/mL in purified water adjusted to pH 7.8 with sodium hydroxide, 1 day after)?
**A.** 3.65%

**Q.** What about the “Peak area ratio to total peak area” value ([1]; human ghrelin 0.1 mg/mL in purified water adjusted to pH 7.8 with sodium hydroxide, 3 days after) of the same substance?
**A.** 9.84%

**Q.** And the “Peak area ratio to total peak area” value ([1]; human ghrelin 0.1 mg/mL in purified water adjusted to pH 7.8 with sodium hydroxide, before storage)?
**A.** 0.33%

**Q.** What about the “Peak area ratio to total peak area” value ([1]; human ghrelin 0.1 mg/mL in purified water, pH 4.7 (not adjusted), 1 day after) of the same substance?
**A.** 0.15%

**Q.** What about the “Peak area ratio to total peak area” value ([1]; human ghrelin 0.1 mg/mL in purified water, pH 4.7 (not adjusted), 3 days after) of the same substance?
**A.** 0.28%

**Q.** What about the “Peak area ratio to total peak area” value ([1]; human ghrelin 0.1 mg/mL in purified water, pH 4.7 (not adjusted), before storage) of the same substance?
**A.** 0.06%

**Q.** What about the “Production of the degradation product” value ([2]; Mcllvain buffer, pH range of 3.0 to 5.0, 25±2°C, up to 72 hours) of the same substance?
**A.** inhibited

**Q.** What about the “Peak area ratio to total peak area” value ([2]; human ghrelin 0.5 mg/mL in 0.1M HCl aqueous solution, pH 1, 25±2°C, 8 hr. after) of the same substance?
**A.** 4.88%

**Q.** What about the “Peak area ratio to total peak area” value ([2]; human ghrelin 0.5 mg/mL in 0.1M HCl aqueous solution, pH 1, 25±2°C, 8 hr. after, listed as desacyl compound) of the same substance?
**A.** more than 3%

**Q.** And the “Peak area ratio to total peak area” value ([2]; human ghrelin 0.5 mg/mL in 0.1M HCl aqueous solution, pH 1, 25±2°C, 24 hr. after)?
**A.** 13.31%

**Q.** What about the “Peak area ratio to total peak area” value ([2]; human ghrelin 0.5 mg/mL in 0.1M HCl aqueous solution, pH 1, 25±2°C, 48 hr. after) of the same substance?
**A.** 24.63%

**Q.** What about the “Peak area ratio to total peak area” value ([2]; human ghrelin 0.5 mg/mL in 0.1M HCl aqueous solution, pH 1, 25±2°C, 72 hr. after) of the same substance?
**A.** 34.17%

**Q.** And the “Peak area ratio to total peak area” value ([2]; human ghrelin 0.5 mg/mL in 0.1M HCl aqueous solution, pH 1, 25±2°C, before storage)?
**A.** 0.27%

**Q.** And the “Peak area ratio to total peak area” value ([2]; human ghrelin 0.5 mg/mL in Mcllvain buffer, pH 2, 25±2°C, 8 hr. after)?
**A.** 0.34%

**Q.** And the “Peak area ratio to total peak area” value ([2]; human ghrelin 0.5 mg/mL in Mcllvain buffer, pH 2, 25±2°C, 24 hr. after)?
**A.** 0.89%

**Q.** What about the “Peak area ratio to total peak area” value ([2]; human ghrelin 0.5 mg/mL in Mcllvain buffer, pH 2, 25±2°C, 48 hr. after) of the same substance?
**A.** 1.76%

**Q.** What about the “Peak area ratio to total peak area” value ([2]; human ghrelin 0.5 mg/mL in Mcllvain buffer, pH 2, 25±2°C, 48 hr. after, listed as desacyl compound) of the same substance?
**A.** more than 1%

**Q.** What about the “Peak area ratio to total peak area” value ([2]; human ghrelin 0.5 mg/mL in Mcllvain buffer, pH 2, 25±2°C, 72 hr. after) of the same substance?
**A.** 2.59%

**Q.** What about the “Peak area ratio to total peak area” value ([2]; human ghrelin 0.5 mg/mL in Mcllvain buffer, pH 2, 25±2°C, before storage) of the same substance?
**A.** 0.10%

**Q.** What about the “Peak area ratio to total peak area” value ([2]; human ghrelin 0.5 mg/mL in Mcllvain buffer, pH 3, 25±2°C, 8 hr. after) of the same substance?
**A.** 0.20%

**Q.** What about the “Peak area ratio to total peak area” value ([2]; human ghrelin 0.5 mg/mL in Mcllvain buffer, pH 3, 25±2°C, 24 hr. after) of the same substance?
**A.** 0.38%

**Q.** And the “Peak area ratio to total peak area” value ([2]; human ghrelin 0.5 mg/mL in Mcllvain buffer, pH 3, 25±2°C, 48 hr. after)?
**A.** 0.67%

**Q.** And the “Peak area ratio to total peak area” value ([2]; human ghrelin 0.5 mg/mL in Mcllvain buffer, pH 3, 25±2°C, 72 hr. after)?
**A.** 0.98%

**Q.** What about the “Peak area ratio to total peak area” value ([2]; human ghrelin 0.5 mg/mL in Mcllvain buffer, pH 3, 25±2°C, before storage) of the same substance?
**A.** 0.10%

**Q.** What about the “Peak area ratio to total peak area” value ([2]; human ghrelin 0.5 mg/mL in Mcllvain buffer, pH 4, 25±2°C, 8 hr. after) of the same substance?
**A.** 0.12%

**Q.** And the “Peak area ratio to total peak area” value ([2]; human ghrelin 0.5 mg/mL in Mcllvain buffer, pH 4, 25±2°C, 24 hr. after)?
**A.** 0.21%

**Q.** What about the “Peak area ratio to total peak area” value ([2]; human ghrelin 0.5 mg/mL in Mcllvain buffer, pH 4, 25±2°C, 48 hr. after) of the same substance?
**A.** 0.37%

**Q.** And the “Peak area ratio to total peak area” value ([2]; human ghrelin 0.5 mg/mL in Mcllvain buffer, pH 4, 25±2°C, 72 hr. after)?
**A.** 0.51%

**Q.** What about the “Peak area ratio to total peak area” value ([2]; human ghrelin 0.5 mg/mL in Mcllvain buffer, pH 4, 25±2°C, before storage) of the same substance?
**A.** 0.09%

**Q.** And the “Peak area ratio to total peak area” value ([2]; human ghrelin 0.5 mg/mL in Mcllvain buffer, pH 5, 25±2°C, 8 hr. after)?
**A.** 0.14%

**Q.** What about the “Peak area ratio to total peak area” value ([2]; human ghrelin 0.5 mg/mL in Mcllvain buffer, pH 5, 25±2°C, 24 hr. after) of the same substance?
**A.** 0.24%

**Q.** What about the “Peak area ratio to total peak area” value ([2]; human ghrelin 0.5 mg/mL in Mcllvain buffer, pH 5, 25±2°C, 48 hr. after) of the same substance?
**A.** 0.45%

**Q.** What about the “Peak area ratio to total peak area” value ([2]; human ghrelin 0.5 mg/mL in Mcllvain buffer, pH 5, 25±2°C, 72 hr. after) of the same substance?
**A.** 0.61%

**Q.** And the “Peak area ratio to total peak area” value ([2]; human ghrelin 0.5 mg/mL in Mcllvain buffer, pH 5, 25±2°C, before storage)?
**A.** 0.10%

**Q.** What about the “Peak area ratio to total peak area” value ([2]; human ghrelin 0.5 mg/mL in Mcllvain buffer, pH 6, 25±2°C, 8 hr. after) of the same substance?
**A.** 0.28%

**Q.** And the “Peak area ratio to total peak area” value ([2]; human ghrelin 0.5 mg/mL in Mcllvain buffer, pH 6, 25±2°C, 24 hr. after)?
**A.** 0.70%

**Q.** What about the “Peak area ratio to total peak area” value ([2]; human ghrelin 0.5 mg/mL in Mcllvain buffer, pH 6, 25±2°C, 48 hr. after) of the same substance?
**A.** 1.33%

**Q.** What about the “Peak area ratio to total peak area” value ([2]; human ghrelin 0.5 mg/mL in Mcllvain buffer, pH 6, 25±2°C, 48 hr. after, listed as desacyl compound) of the same substance?
**A.** more than 1%

**Q.** What about the “Peak area ratio to total peak area” value ([2]; human ghrelin 0.5 mg/mL in Mcllvain buffer, pH 6, 25±2°C, 72 hr. after) of the same substance?
**A.** 1.97%

**Q.** What about the “Peak area ratio to total peak area” value ([2]; human ghrelin 0.5 mg/mL in Mcllvain buffer, pH 6, 25±2°C, before storage) of the same substance?
**A.** 0.10%

**Q.** What about the “Peak area ratio to total peak area” value ([2]; human ghrelin 0.5 mg/mL in Mcllvain buffer, pH 7, 25±2°C, 8 hr. after) of the same substance?
**A.** 0.92%

**Q.** What about the “Peak area ratio to total peak area” value ([2]; human ghrelin 0.5 mg/mL in Mcllvain buffer, pH 7, 25±2°C, 24 hr. after) of the same substance?
**A.** 2.70%

**Q.** And the “Peak area ratio to total peak area” value ([2]; human ghrelin 0.5 mg/mL in Mcllvain buffer, pH 7, 25±2°C, 24 hr. after, listed as desacyl compound)?
**A.** more than 1%

**Q.** And the “Peak area ratio to total peak area” value ([2]; human ghrelin 0.5 mg/mL in Mcllvain buffer, pH 7, 25±2°C, 48 hr. after)?
**A.** 5.22%

**Q.** What about the “Peak area ratio to total peak area” value ([2]; human ghrelin 0.5 mg/mL in Mcllvain buffer, pH 7, 25±2°C, 72 hr. after) of the same substance?
**A.** 7.67%

**Q.** What about the “Peak area ratio to total peak area” value ([2]; human ghrelin 0.5 mg/mL in Mcllvain buffer, pH 7, 25±2°C, before storage) of the same substance?
**A.** 0.16%

**Q.** What about the “Peak area ratio to total peak area” value ([2]; human ghrelin 0.5 mg/mL in Mcllvain buffer, pH 8, 25±2°C, 8 hr. after) of the same substance?
**A.** 3.92%

**Q.** And the “Peak area ratio to total peak area” value ([2]; human ghrelin 0.5 mg/mL in Mcllvain buffer, pH 8, 25±2°C, 8 hr. after, listed as desacyl compound)?
**A.** more than 3%

**Q.** What about the “Peak area ratio to total peak area” value ([2]; human ghrelin 0.5 mg/mL in Mcllvain buffer, pH 8, 25±2°C, 24 hr. after) of the same substance?
**A.** 10.57%

**Q.** And the “Peak area ratio to total peak area” value ([2]; human ghrelin 0.5 mg/mL in Mcllvain buffer, pH 8, 25±2°C, 48 hr. after)?
**A.** 19.54%

**Q.** And the “Peak area ratio to total peak area” value ([2]; human ghrelin 0.5 mg/mL in Mcllvain buffer, pH 8, 25±2°C, 72 hr. after)?
**A.** 27.26%

**Q.** And the “Peak area ratio to total peak area” value ([2]; human ghrelin 0.5 mg/mL in Mcllvain buffer, pH 8, 25±2°C, before storage)?
**A.** 0.47%

**Q.** And the “Production of the degradation product” value [3]?
**A.** inhibited
